According to PMC7673040 (Nature Communications, 2020):
Each block holds one binder with its values, some of them ahead of it.

Target: human nascent polypeptide-associated complex (NAC), unlabeled (human, UniProt Q13765 1-215; P20290-2 1-162)
Assay: other fluorescence titration; competition: 1 nM RNC^BDP and 20 nM NAC^Cy3B pre-incubated, unlabeled NAC or NACmt added; FRET fit to Eq. (6); Assay buffer with 1 mg/mL BSA
Details: both partners purified

Kd: 0.5 nM
B1: ribosome-nascent chain complex bearing the first ~90 amino acids of pPL(ssmt), labelled with BODIPY-FL on the nascent chain (complex)
chain: MDSKGSSQKGSKLLLRRVVSNLLLCQGVVSTPVCPNGPGNCQVSLRDLFDRAVMVSHYIHDLSSEMFNEFDKRYAQGKGFITMALNSCHTV
modifications: axial-trans-cyclooct-2-en-L-Lysine (TCOK) at an amber codon one residue upstream of the signal sequence, labelled with tetrazine-conjugated BODIPY-FL (BDP)

Kd: 0.55 nM
B2: ribosome-nascent chain complex bearing the first ~90 amino acids of pPL(ss), labelled with BODIPY-FL on the nascent chain (complex)
chain: MDSKGSSQKGSKLALALLLLLLALALCQGVVSTPVCPNGPGNCQVSLRDLFDRAVMVSHYIHDLSSEMFNEFDKRYAQGKGFITMALNSCHTV
modifications: axial-trans-cyclooct-2-en-L-Lysine (TCOK) at an amber codon one residue upstream of the signal sequence, labelled with tetrazine-conjugated BODIPY-FL (BDP)
